Legend:
[1] = target: Factor Xa; assay: cell-based or functional assay
[2] = target: Factor Xa; assay: reconstituted prothrombinase complex assay (250 pM FXa, 2.67 µM prothrombin), thrombin generation
[3] = target: Factor Xa; assay: modified prothrombinase complex assay (50 pM FXa, 1.35 µM prothrombin)

IC50, prothrombinase complex assay (thrombin generation) [1]: 190 pM
Ki [2]: 72 pM
Ki [3]: 120 pM
Substance: naturally occurring FXa inhibitor isolated from dilute leech saliva (DLS) of Hirudo medicinalis

From patent publication EP0696198B1
